Measured values reported in US20160244497A1 (Amgen, published 2016).

B1: dually PEGylated FGF21 mutant E37C, R77C (ligand)
chain: MHPIPDSSPLLQFGGQVRQRYLYTDDAQQTEAHLEIRCDGTVGGAADQSPESLLQLKALKPGVIQILGVKTSRFLCQCPDGALYGSLHFDPEACSFRELLLEDGYNVYQSEAHGLPLHLPGNKSPHRDPAPRGPARFLPLPGLPPAPPEPPGILAPQPPDVGSSDPLSMVGPSQGRSPSYAS
modifications: 20 kDa methoxy-PEG-maleimide on Cys 37 and on Cys 77
B2: dually PEGylated FGF21 mutant E37C, E91C (ligand)
chain: MHPIPDSSPLLQFGGQVRQRYLYTDDAQQTEAHLEIRCDGTVGGAADQSPESLLQLKALKPGVIQILGVKTSRFLCQRPDGALYGSLHFDPCACSFRELLLEDGYNVYQSEAHGLPLHLPGNKSPHRDPAPRGPARFLPLPGLPPAPPEPPGILAPQPPDVGSSDPLSMVGPSQGRSPSYAS
modifications: 20 kDa methoxy-PEG-maleimide on Cys 37 and on Cys 91
B3: dually PEGylated FGF21 mutant K69C, E91C (ligand)
chain: MHPIPDSSPLLQFGGQVRQRYLYTDDAQQTEAHLEIREDGTVGGAADQSPESLLQLKALKPGVIQILGVCTSRFLCQRPDGALYGSLHFDPCACSFRELLLEDGYNVYQSEAHGLPLHLPGNKSPHRDPAPRGPARFLPLPGLPPAPPEPPGILAPQPPDVGSSDPLSMVGPSQGRSPSYAS
modifications: 20 kDa methoxy-PEG-maleimide on Cys 69 and on Cys 91
B4: dually PEGylated FGF21 mutant E37C, R175C (ligand)
chain: MHPIPDSSPLLQFGGQVRQRYLYTDDAQQTEAHLEIRCDGTVGGAADQSPESLLQLKALKPGVIQILGVKTSRFLCQRPDGALYGSLHFDPEACSFRELLLEDGYNVYQSEAHGLPLHLPGNKSPHRDPAPRGPARFLPLPGLPPAPPEPPGILAPQPPDVGSSDPLSMVGPSQGCSPSYAS
modifications: 20 kDa methoxy-PEG-maleimide on Cys 37 and on Cys 175
B5: dually PEGylated FGF21 mutant R77C, H125C (ligand)
chain: MHPIPDSSPLLQFGGQVRQRYLYTDDAQQTEAHLEIREDGTVGGAADQSPESLLQLKALKPGVIQILGVKTSRFLCQCPDGALYGSLHFDPEACSFRELLLEDGYNVYQSEAHGLPLHLPGNKSPCRDPAPRGPARFLPLPGLPPAPPEPPGILAPQPPDVGSSDPLSMVGPSQGRSPSYAS
modifications: 20 kDa methoxy-PEG-maleimide on Cys 77 and on Cys 125
B6: dually PEGylated FGF21 mutant E37C, H125C (ligand)
chain: MHPIPDSSPLLQFGGQVRQRYLYTDDAQQTEAHLEIRCDGTVGGAADQSPESLLQLKALKPGVIQILGVKTSRFLCQRPDGALYGSLHFDPEACSFRELLLEDGYNVYQSEAHGLPLHLPGNKSPCRDPAPRGPARFLPLPGLPPAPPEPPGILAPQPPDVGSSDPLSMVGPSQGRSPSYAS
modifications: 20 kDa methoxy-PEG-maleimide on Cys 37 and on Cys 125
B7: dually PEGylated FGF21 mutant E37C, G120C (ligand)
chain: MHPIPDSSPLLQFGGQVRQRYLYTDDAQQTEAHLEIRCDGTVGGAADQSPESLLQLKALKPGVIQILGVKTSRFLCQRPDGALYGSLHFDPEACSFRELLLEDGYNVYQSEAHGLPLHLPCNKSPHRDPAPRGPARFLPLPGLPPAPPEPPGILAPQPPDVGSSDPLSMVGPSQGRSPSYAS
modifications: 20 kDa methoxy-PEG-maleimide on Cys 37 and on Cys 120
B8: dually PEGylated FGF21 mutant E91C, R175C (ligand)
chain: MHPIPDSSPLLQFGGQVRQRYLYTDDAQQTEAHLEIREDGTVGGAADQSPESLLQLKALKPGVIQILGVKTSRFLCQRPDGALYGSLHFDPCACSFRELLLEDGYNVYQSEAHGLPLHLPGNKSPHRDPAPRGPARFLPLPGLPPAPPEPPGILAPQPPDVGSSDPLSMVGPSQGCSPSYAS
modifications: 20 kDa methoxy-PEG-maleimide on Cys 91 and on Cys 175
B9: dually PEGylated FGF21 mutant R77C, G120C (ligand)
chain: MHPIPDSSPLLQFGGQVRQRYLYTDDAQQTEAHLEIREDGTVGGAADQSPESLLQLKALKPGVIQILGVKTSRFLCQCPDGALYGSLHFDPEACSFRELLLEDGYNVYQSEAHGLPLHLPCNKSPHRDPAPRGPARFLPLPGLPPAPPEPPGILAPQPPDVGSSDPLSMVGPSQGRSPSYAS
modifications: 20 kDa methoxy-PEG-maleimide on Cys 77 and on Cys 120
B10: dually PEGylated FGF21 mutant R77C, R175C (ligand)
chain: MHPIPDSSPLLQFGGQVRQRYLYTDDAQQTEAHLEIREDGTVGGAADQSPESLLQLKALKPGVIQILGVKTSRFLCQCPDGALYGSLHFDPEACSFRELLLEDGYNVYQSEAHGLPLHLPGNKSPHRDPAPRGPARFLPLPGLPPAPPEPPGILAPQPPDVGSSDPLSMVGPSQGCSPSYAS
modifications: 20 kDa methoxy-PEG-maleimide on Cys 77 and on Cys 175
B11: dually PEGylated FGF21 mutant K69C, G120C (ligand)
chain: MHPIPDSSPLLQFGGQVRQRYLYTDDAQQTEAHLEIREDGTVGGAADQSPESLLQLKALKPGVIQILGVCTSRFLCQRPDGALYGSLHFDPEACSFRELLLEDGYNVYQSEAHGLPLHLPCNKSPHRDPAPRGPARFLPLPGLPPAPPEPPGILAPQPPDVGSSDPLSMVGPSQGRSPSYAS
modifications: 20 kDa methoxy-PEG-maleimide on Cys 69 and on Cys 120
B12: dually PEGylated FGF21 mutant G120C, H125C (ligand)
chain: MHPIPDSSPLLQFGGQVRQRYLYTDDAQQTEAHLEIREDGTVGGAADQSPESLLQLKALKPGVIQILGVKTSRFLCQRPDGALYGSLHFDPEACSFRELLLEDGYNVYQSEAHGLPLHLPCNKSPCRDPAPRGPARFLPLPGLPPAPPEPPGILAPQPPDVGSSDPLSMVGPSQGRSPSYAS
modifications: 20 kDa methoxy-PEG-maleimide on Cys 120 and on Cys 125
B13: dually PEGylated FGF21 mutant G120C, R175C (ligand)
chain: MHPIPDSSPLLQFGGQVRQRYLYTDDAQQTEAHLEIREDGTVGGAADQSPESLLQLKALKPGVIQILGVKTSRFLCQRPDGALYGSLHFDPEACSFRELLLEDGYNVYQSEAHGLPLHLPCNKSPHRDPAPRGPARFLPLPGLPPAPPEPPGILAPQPPDVGSSDPLSMVGPSQGCSPSYAS
modifications: 20 kDa methoxy-PEG-maleimide on Cys 120 and on Cys 175
B14: dually PEGylated FGF21 mutant E37C, K69C (ligand)
chain: MHPIPDSSPLLQFGGQVRQRYLYTDDAQQTEAHLEIRCDGTVGGAADQSPESLLQLKALKPGVIQILGVCTSRFLCQRPDGALYGSLHFDPEACSFRELLLEDGYNVYQSEAHGLPLHLPGNKSPHRDPAPRGPARFLPLPGLPPAPPEPPGILAPQPPDVGSSDPLSMVGPSQGRSPSYAS
modifications: 20 kDa methoxy-PEG-maleimide on Cys 37 and on Cys 69
B15: dually PEGylated FGF21 mutant E91C, G120C (ligand)
chain: MHPIPDSSPLLQFGGQVRQRYLYTDDAQQTEAHLEIREDGTVGGAADQSPESLLQLKALKPGVIQILGVKTSRFLCQRPDGALYGSLHFDPCACSFRELLLEDGYNVYQSEAHGLPLHLPCNKSPHRDPAPRGPARFLPLPGLPPAPPEPPGILAPQPPDVGSSDPLSMVGPSQGRSPSYAS
modifications: 20 kDa methoxy-PEG-maleimide on Cys 91 and on Cys 120
B16: dually PEGylated FGF21 mutant E91C, H125C (ligand)
chain: MHPIPDSSPLLQFGGQVRQRYLYTDDAQQTEAHLEIREDGTVGGAADQSPESLLQLKALKPGVIQILGVKTSRFLCQRPDGALYGSLHFDPCACSFRELLLEDGYNVYQSEAHGLPLHLPGNKSPCRDPAPRGPARFLPLPGLPPAPPEPPGILAPQPPDVGSSDPLSMVGPSQGRSPSYAS
modifications: 20 kDa methoxy-PEG-maleimide on Cys 91 and on Cys 125
B17: dually PEGylated FGF21 mutant K69C, H125C (ligand)
chain: MHPIPDSSPLLQFGGQVRQRYLYTDDAQQTEAHLEIREDGTVGGAADQSPESLLQLKALKPGVIQILGVCTSRFLCQRPDGALYGSLHFDPEACSFRELLLEDGYNVYQSEAHGLPLHLPGNKSPCRDPAPRGPARFLPLPGLPPAPPEPPGILAPQPPDVGSSDPLSMVGPSQGRSPSYAS
modifications: 20 kDa methoxy-PEG-maleimide on Cys 69 and on Cys 125
B18: dually PEGylated FGF21 mutant R77C, E91C (ligand)
chain: MHPIPDSSPLLQFGGQVRQRYLYTDDAQQTEAHLEIREDGTVGGAADQSPESLLQLKALKPGVIQILGVKTSRFLCQCPDGALYGSLHFDPCACSFRELLLEDGYNVYQSEAHGLPLHLPGNKSPHRDPAPRGPARFLPLPGLPPAPPEPPGILAPQPPDVGSSDPLSMVGPSQGRSPSYAS
modifications: 20 kDa methoxy-PEG-maleimide on Cys 77 and on Cys 91

Target: beta-klotho
Test: cell-based or functional assay

Binder | EC50, ELK-luciferase assay
B1 | 21 nM
B2 | 36 nM
B3 | 69 nM
B4 | 50 nM
B5 | 30 nM
B6 | 64 nM
B7 | 55 nM
B8 | 46 nM
B9 | 34 nM
B10 | 62 nM
B11 | 119 nM
B12 | 23 nM
B13 | 118 nM
B14 | 67 nM
B15 | 54 nM
B16 | 32 nM
B17 | 164 nM
B18 | 26 nM
